Legend:
[1] = system: CC(C)=CC(=O)SCCNC(=O)CCNC(=O)[C@H](O)C(C)(C)COP(=O)(O)OP(=O)(O)OC[C@H]1O[C@@H](n2cnc3c(N)ncnc32)[C@H](O)[C@@H]1OP(=O)(O)O; test: purified protein; conditions: co-substrates ATP and bicarbonate, Mg; 3-methylcrotonyl-CoA varied 1-1000 μM; enzyme complex 0.05 μM (Fig 4 legend says 0.5 μM)
[2] = molecular target: His-AccD, β subunit of the 3-methylcrotonyl-CoA carboxylase (MCC) complex of Xanthomonas citri subsp. citri (XAC0264) (Xanthomonas citri subsp. citri) (UniProt Q8PJ30); test: SEC; Superdex S200, 500 μg of AccC, AccD or the complex (preincubated mixture of both) loaded; 50 mM potassium phosphate pH 7.6, 50 mM NaCl, 0.5 mM DTT; calibrated with mass standards; fractions of the complex analysed by SDS-PAGE

| Substance | Km [1] [µM] | stoichiometry N [2] |
| --- | --- | --- |
| MCC complex (His-AccC / His-AccD, α6β6) (Xanthomonas citri subsp. citri 306) | 71.4 |  |
| His-AccC, α subunit of the 3-methylcrotonyl-CoA carboxylase (MCC) complex of Xanthomonas citri subsp. citri (XAC0263) (from UniProt A0AAI8ER48 1-675) (natural protein) |  | 1 |
| His-AccD, β subunit of the 3-methylcrotonyl-CoA carboxylase (MCC) complex of Xanthomonas citri subsp. citri (XAC0264) (from UniProt Q8PJ30 1-295) (natural protein) |  | 6 |

Source: publication PMC5991677, “3-methylcrotonyl Coenzyme A (CoA) carboxylase complex is involved in the Xanthomonas citri subsp. citri lifestyle during citrus infection” (PLoS ONE, 2018)
